In paper PMC11310207 (Scientific Reports, 2024):
Square brackets hold non-standard residues; d marks the D form. Ends that are not written are not given here. * marks the point of attachment. Dnp = O=[N+]([O-])c1ccc(*)c([N+](=O)[O-])c1; Mca = COc1ccc2c(CC(=O)*)cc(=O)oc2c1

Experiments:
[1] = molecular target: rNln (Met37–Ser704), C-terminal 6xHis-tag, catalytically active (UniProt P42676 37-704); experiment: fluorescence polarisation
[2] = molecular target: human neurolysin (hNln), Ser38-Pro704, N-terminal 6xHis-tag, used in the activity assays (human, UniProt Q9BYT8 38-704); experiment: enzyme inhibition

Row | Binder | binding result [2] | other results
1 | {FAM}-GGFLRRIRPKLK [FAM-GGFLRRIRPKLK, N-terminally FAM-labeled Dyn A (2–13)] |  | Kd [1]: 1.47 µM
2 | YGGFLRRIRPKL [dynorphin A (1–12)] |  | Ki [2]: 0.9 µM
3 | YGGFLRR [dynorphin A (1–7)] | binds | 
4 | YGGFLRRIRP [dynorphin A (1–10)] | binds | 
5 | YGGFLRRIRPK [dynorphin A (1–11)] | binds | 
6 | Mca-PLGP[dK](Dnp)-OH [Mca–Pro–Leu–Gly–Pro–D–Lys(DNP)–OH, quenched fluorogenic substrate of Nln] | binds | 
